Data as given in article PMC3001067 (Nucleic Acids Research, 2010).
Residue numbers refer to the chain shown, from its start. Names and notes keep the numbering of the source.

Tests used:
[1] = target: Thermus aquaticus RNAP β-subunit β1 domain (Taq β 17–139 –Gly–Gly– 334–395) (Thermus aquaticus) (UniProt Q9KWU7); experiment: crystal structure
[2] = target: Tth RNAP-β1 Q99R (Tth RNAP β-subunit residues 10–133), two-hybrid fusion (Thermus thermophilus) (UniProt Q8RQE9); experiment: two-hybrid
[3] = target: Eco RNAP β-subunit residues 19–142 (Eco RNAP-β1), two-hybrid fusion (Escherichia coli) (UniProt P0A8V2); experiment: two-hybrid
[4] = target: Tth RNAP β-subunit residues 10–133 (Tth RNAP-β1), two-hybrid fusion (Thermus thermophilus) (UniProt Q8RQE9); experiment: two-hybrid
[5] = target: T1, Tth RNAP-β1 Q99R (Tth RNAP β-subunit residues 10–133), two-hybrid fusion (Thermus thermophilus, UniProt Q8RQE9 10-133, Q99R); experiment: two-hybrid
T1 sequence (looked up): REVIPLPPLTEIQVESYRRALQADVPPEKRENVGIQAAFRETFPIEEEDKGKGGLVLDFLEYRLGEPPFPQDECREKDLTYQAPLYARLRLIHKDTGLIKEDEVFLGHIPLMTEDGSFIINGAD

[6] = target: Eco RNAP β-subunit residues 19–142 (Eco RNAP-β1), two-hybrid fusion (Escherichia coli, UniProt P0A8V2 19-142); experiment: two-hybrid

Thermus thermophilus HB27 TRCF RNAP interacting domain (Tth TRCF–RID, residues 321–387) (domain or fragment)
stoichiometry N [1]: 1

Tth TRCF residues 314–444 (Tth TRCF–RID), two-hybrid fusion (domain or fragment)
fold defect of the two-hybrid signal against wild-type Tth RNAP-β1 [2]: 2 fold

Tth TRCF–RID R341L (Tth TRCF residues 314–444), two-hybrid fusion (domain or fragment)
fold change of the two-hybrid signal against wild-type Tth TRCF–RID [3]: 2 fold
fold defect of the two-hybrid signal against wild-type Tth TRCF–RID [4]: 2 fold

B1: Eco TRCF residues 472–603 (Eco TRCF–RID), two-hybrid fusion (domain or fragment, Escherichia coli, UniProt P30958 472-603, looked up)
chain: RNLAELHIGQPVVHLEHGVGRYAGMTTLEAGGITGEYLMLTYANDAKLYVPVSSLHLISRYAGGAEENAPLHKLGGDAWSRARQKAAEKVRDVAAELLDIYAQRAAKEGFAFKHDREQYQLFCDSFPFETTP
fold change of the two-hybrid signal against wild-type Tth RNAP-β1 [5]: ~2 fold

B2: Eco TRCF–RID L499R (Eco TRCF residues 472–603), two-hybrid fusion (domain or fragment, Escherichia coli, UniProt P30958 472-603, looked up)
chain: B1 chain with L28R
fold defect of the two-hybrid signal against wild-type Eco TRCF–RID [6]: ~10 fold
